Data published in the Human Domainome abundance scans (Beltran et al. 2025).
± gives the uncertainty stated by the source.

B1: Homeobox protein cut-like 2, residues 895 to 963; numbered along this chain, O14529 (parent)
chain: EVDTLELTRQVKEKLAKNGICQRIFGEKVLGLSQGSVSDMLSRPKPWSKLTQKGREPFIRMQLWLSDQL

Variants of: B1
Assay: abundance fitness (aPCA) (normalised: wild type 0, dead -1); higher = more abundant; growth selection in yeast, the domain comes from the species named
Details: Homo sapiens

Row | Variant | abundance fitness
1 | S36E | 0.152 ± 0.054
2 | S36Y | -0.062 ± 0.043
3 | G54P | -0.581 ± 0.041
4 | G54D | 0.201 ± 0.24
5 | G54H | -0.215 ± 0.074
6 | S48F | -0.19 ± 0.038
7 | S48V | -0.259 ± 0.035
8 | F58N | -1.1 ± 0.3
9 | F58Y | 0.186 ± 0.19
10 | F58Q | -1.01 ± 0.1
11 | E27N | -0.108 ± 0.052
12 | E27S | -0.006 ± 0.032
13 | E27P | -0.106 ± 0.041
14 | E56Q | -0.06 ± 0.05
15 | E56L | -0.211 ± 0.032
16 | L32N | -0.305 ± 0.042
17 | L32E | -0.227 ± 0.13
18 | T4I | -0.126 ± 0.059
19 | T4L | -0.215 ± 0.027
20 | T4S | -0.244 ± 0.034
21 | T4W | -0.015 ± 0.039

Row | Variant | abundance fitness
22 | T4F | -0.006 ± 0.063
23 | G31W | -0.367 ± 0.058
24 | G31H | -0.059 ± 0.054
25 | G31Y | -0.449 ± 0.062
26 | G31A | -0.226 ± 0.042
27 | G31P | -0.378 ± 0.038
28 | P44A | -0.103 ± 0.038
29 | P44I | -0.113 ± 0.056
30 | R23A | -0.106 ± 0.039
31 | R23C | -0.317 ± 0.091
32 | M61E | -1.02 ± 0.17
33 | M61W | -0.379 ± 0.038
34 | G26F | -0.02 ± 0.032
35 | Q62K | 0.17 ± 0.073
36 | Q62G | -0.06 ± 0.039
37 | Q62A | -0.098 ± 0.035
38 | Q62D | -0.654 ± 0.16
39 | K28P | -0.6 ± 0.04
40 | K28E | -0.026 ± 0.043
41 | W47R | -0.793 ± 0.077
42 | W47P | -0.964 ± 0.057

Row | Variant | abundance fitness
43 | S66R | 0.028 ± 0.045
44 | S66E | -0.069 ± 0.077
45 | E13S | -0.129 ± 0.037
46 | E13N | -0.116 ± 0.09
47 | K14A | -0.064 ± 0.075
48 | K14L | 0.009 ± 0.027
49 | N18I | -0.101 ± 0.049
50 | N18T | 0.022 ± 0.035
51 | G19Y | -0.122 ± 0.057
52 | G19W | -0.341 ± 0.06
53 | D3E | -0.277 ± 0.041
54 | D3F | -0.139 ± 0.047
55 | V29P | -0.345 ± 0.042
56 | V29N | -0.551 ± 0.055
57 | I24E | 0.278 ± 0.046
58 | K53H | -0.194 ± 0.063
59 | K53R | -0.09 ± 0.028
60 | L63Y | -0.115 ± 0.049
61 | L63D | 0.07 ± 0.12
62 | L63N | -0.006 ± 0.07
63 | R60N | -0.413 ± 0.093

Row | Variant | abundance fitness
64 | R60A | -0.27 ± 0.067
65 | C21E | -0.04 ± 0.043
66 | C21I | -0.115 ± 0.083
67 | T8V | 0.041 ± 0.032
68 | T8I | -0.107 ± 0.044
69 | E6F | -0.192 ± 0.053
70 | E6N | -0.055 ± 0.1
71 | G35P | -0.077 ± 0.04
72 | G35N | 0.044 ± 0.088
73 | G35V | -0.058 ± 0.033
74 | G35C | -0.211 ± 0.043
75 | G35Y | -0.125 ± 0.043
76 | G35S | 0.027 ± 0.038
77 | T51N | -0.082 ± 0.048
78 | T51W | -0.033 ± 0.12
79 | V2F | -0.024 ± 0.048
80 | V2L | 0.03 ± 0.027
81 | K45W | -0.313 ± 0.24
82 | K45R | 0.128 ± 0.14
83 | K17L | -0.087 ± 0.029
